12 molecules from US20170204182A1 (published 2017) can be followed below.

Numbering of substitutions follows the chain as printed.

The target in test [1] is T1, phosphorylated human tau protein (human, UniProt P10636-8 1-441, limits assumed, S422 phosphorylation).
T1 construct: also called pTau
Briefly: SPR (BIAcore), captured antibody. (In general: In SPR one partner is held on a chip, and binding of the other changes the refractive index at the surface.)

Test [2] addresses T1, phosphorylated human tau protein. Description: SPR (BIAcore); value set to 0 where kd not determinable.
Test [3] addresses T2, CD81 (UniProt P60033 1-236, limits assumed).
T2 construct: whole, on cells; also called CD81 receptor
T2 sequence (looked up): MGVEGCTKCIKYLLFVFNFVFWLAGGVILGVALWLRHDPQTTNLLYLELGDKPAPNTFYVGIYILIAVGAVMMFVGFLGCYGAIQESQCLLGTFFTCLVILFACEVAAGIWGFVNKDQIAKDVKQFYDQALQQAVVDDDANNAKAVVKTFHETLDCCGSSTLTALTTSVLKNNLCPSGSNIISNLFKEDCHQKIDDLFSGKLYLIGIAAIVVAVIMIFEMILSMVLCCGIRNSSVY
Briefly: cell ELISA. For orientation: An ELISA detects its analyte on a solid surface through an enzyme-linked reagent.
Procedure: For the binding cell ELISA assay, HuH7-Rluc-H3 (positive cell line expressing CD81) and HuH7-Rluc-L1 (negative control cell line) were propagated in F-12 DMEM medium with 10% FCS at 37° C. and 5% CO₂. On day 1, the cells were trypsinized at approximately 90% confluence and resuspended at 4×10⁵ cells/mL. […] On day 2, the antibody samples to be tested were prepared in a separate polypropylene round bottom plate with a twofold desired concentration with a final volume of 120 μl. All of the assay samples were diluted in cell culture medium. […] After fixation, each well was washed 3 times with 200 μL PBS/0.05% Tween. The secondary incubation step for detection of bound anti-CD81 antibodies was performed for 2 h at room temperature on a reciprocal shaker. […] Each well was washed three times with 200 PBS/0.05% Tween to remove unbound antibodies. […] The absorbance was read using the ELISA Tecan reader at 450 nm with 620 nm reference wavelength.

T1 sequence (P10636 other isoform, or with tags, fused parts or gaps limits assumed): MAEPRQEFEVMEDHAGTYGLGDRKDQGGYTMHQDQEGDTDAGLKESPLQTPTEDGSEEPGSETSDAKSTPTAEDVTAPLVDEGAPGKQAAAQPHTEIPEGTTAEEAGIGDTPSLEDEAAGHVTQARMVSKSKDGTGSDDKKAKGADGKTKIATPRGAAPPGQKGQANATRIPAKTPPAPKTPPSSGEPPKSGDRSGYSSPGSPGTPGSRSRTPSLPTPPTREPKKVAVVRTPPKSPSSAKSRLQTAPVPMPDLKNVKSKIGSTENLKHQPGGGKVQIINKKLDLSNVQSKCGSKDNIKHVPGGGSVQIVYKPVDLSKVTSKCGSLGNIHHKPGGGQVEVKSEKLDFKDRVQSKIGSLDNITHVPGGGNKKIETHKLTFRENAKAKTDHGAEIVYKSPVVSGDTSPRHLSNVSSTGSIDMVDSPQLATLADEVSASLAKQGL

B1: Rb86 variant: HC 001_IGHV3_23_04 / LC 006--IMGT_hVK_7_3 (antibody, V domains shown)
VH: QQLVESGGGLVQPGGSLRLSCAASGFSLSSNAINWVRQAPGKGLEWVGYIAVSGNTYYASWAKGRFTISRDNSKNTLYLQMNSLRAEDTAVYYCGKSNIWGQGTLVTVSS
VL: DIVLTQSPASLAVSPGQRATITCQSSQSVRTNKLAWFQQKPGQPPKRLIYSASTLDFGVPARFSGSGSGTDFTLTINPVEANDTANYYCLGYFDCSIADCVAFGGGTKVEIK
Regarding B1, the “half-life (t1/2)” value in test [1] came to 4.38 min.

B2: Rb86 variant: HC 001_IGHV3_23_04 / LC 017--IMGT_hVK_1_17 (antibody, V domains shown)
VH: B1 VH
VL: DIQMTQSPSSLSASVGDRVTITCRSSQSVRTNKLAWFQQKPGQPPKRLIYSASTLDFGVPSRFSGSGSGTEFTLTISSLQPEDFATYYCLGYFDCSIADCVAFGGGTKVEIK
In the case of B2, the “half-life (t1/2)” value in test [1] turned out to be 5.26 min.

B3: Rb86 variant: HC 001_IGHV3_23_04 / LC 015--IMGT_hVK_1_17 (antibody, V domains shown)
VH: B1 VH
VL: B2 VL with S25A, S28G, D56Q, F57S, C95S, C100S
For B3, the “half-life (t1/2)” value in test [1] came to 3.02 min.

B4: Rb86 variant: HC 001_IGHV3_23_04 / LC 012--IMGT_hVK_1_17 (antibody, V domains shown)
VH: B1 VH
VL: B2 VL with S25A, S28G, D56Q, F57S
As to B4, the “half-life (t1/2)” value in test [1] came out at 4.67 min.

B5: Rb86 variant: HC 002--IMGT_hVH_3_23 / LC Rb86 (antibody, V domains shown)
VH: B1 VH with Q2S, L3V, V4L, Q102P
VL: AQVLTQTTSPVSAAVGSTVTISCQSSQSVRTNKLAWFQQKPGQPPKRLIYSASTLDFGVPSRFSASGSGTQFTLTISDVQCDDAATYYCLGYFDCSIADCVAFGGGTEVVVK
As for B5, in test [1], the “half-life (t1/2)” value came out at 8.41 min.

B6: Rb86 variant: HC 001_IGHV3_23_04 / LC 010--IMGT_hVK_1_17 (antibody, V domains shown)
VH: B1 VH
VL: B2 VL with S25A, S28G, A35G, F37Y, Q43K, P44A, D56Q, F57S
With B6, the “half-life (t1/2)” value in test [2] came out at 0 h.

B7: Rb86 variant: HC 001_IGHV3_23_04 / LC 014--IMGT_hVK_1_17 (antibody, V domains shown)
VH: B1 VH
VL: B2 VL with S25A, S28G, D56Q, F57S, P81S
With B7, the “half-life (t1/2)” value in test [1] was found to be 5.08 min.

B8: Rb86 variant: HC 001_IGHV3_23_04 / LC 013--IMGT_hVK_1_17 (antibody, V domains shown)
VH: B1 VH
VL: B2 VL with P8T, S25A, S28G, D56Q, F57S
As for B8, the “half-life (t1/2)” value in test [1] came to 5.65 min.

B9: Rb86 variant: HC Rb86 / LC 012--IMGT_hVK_1_17 (antibody, V domains shown)
VH: QSVEESGGRLVTPGTPLTLTCTVSGFSLSSNAINWVRQAPGKGLEWIGYIAVSGNTYYASWAKGRFTISKASTTVDLKMTSPTAEDTGTYFCGKSNIWGPGTLVTVSL
VL: B2 VL with S25A, S28G, D56Q, F57S
For the molecule B9, the “half-life (t1/2)” value in test [1] was found to be 15.9 min.

B10: Rb86 variant: HC Rb86 / LC 017--IMGT_hVK_1_17 (antibody, V domains shown)
VH: B9 VH
VL: B2 VL
Take B10: the “half-life (t1/2)” value in test [1] worked out at 23.2 min.

B11: CD81K04 HC CD81K04 / LC CD81K04 (antibody, V domains shown)
VH: QVQLQQSGPELVKPGASVKISCKASGYTFSSSWMNWVKQRPGKGLEWIGRIYSGDGDAIYNGKFKGKATLTADKSSSTAYMQLSSLTSEDSAVYFCAREGKTGDLLLRSWGQGSALTVSS
VL: DIVLTQSPASLSVSLGQRATISCRASKSVSTSIYSYMHWYQQKPGQPPKLLIKYASYLESGVPARFSGSGSGTDFTLNIHPVEEEDAATYYCEHSREFPFTFGTGTKLEIK
notes: chimeric form of murine CD81K04
B11 came in with an ELISA absorbance in test [3] of 1.14.

B12: CD81K04 HC K04_JA-13-hVH_1_3 / LC CD81K04 (antibody, V domains shown)
VH: QVQLVQSGAEVKKPGASVKVSCKASGYTFSSSWMNWVRQAPGQRLEWMGRIYSGDGDAIYNGKFKGRVTITRDTSASTAYMELSSLRSEDTAVYYCAREGKTGDLLLRSWGQGTLVTVSS
VL: B11 VL
As for B12, the ELISA absorbance in test [3] is 0.975.
